Results on three substances are retold here after patent US20010029293A1.

For assay [1], the target named is LFA-1 (CD11a/CD18) on cells (human) (UniProt P20701). The assay can be described thus: JY cell adhesion to coated shICAM-R, mAb 10 µg/ml.
For assay [2] the target is unchanged. Briefly: cell adhesion to coated shICAM-R, peptide 1-2 mg/ml.
The target is the same in assay [3]. The assay can be described thus: neutrophil adhesion to coated ICAM-R/Ig, mAb 15 µg/ml.

Sequence of LFA-1 (CD11a/CD18) on cells (human) (P20701 26-1170, chain 1 of 2): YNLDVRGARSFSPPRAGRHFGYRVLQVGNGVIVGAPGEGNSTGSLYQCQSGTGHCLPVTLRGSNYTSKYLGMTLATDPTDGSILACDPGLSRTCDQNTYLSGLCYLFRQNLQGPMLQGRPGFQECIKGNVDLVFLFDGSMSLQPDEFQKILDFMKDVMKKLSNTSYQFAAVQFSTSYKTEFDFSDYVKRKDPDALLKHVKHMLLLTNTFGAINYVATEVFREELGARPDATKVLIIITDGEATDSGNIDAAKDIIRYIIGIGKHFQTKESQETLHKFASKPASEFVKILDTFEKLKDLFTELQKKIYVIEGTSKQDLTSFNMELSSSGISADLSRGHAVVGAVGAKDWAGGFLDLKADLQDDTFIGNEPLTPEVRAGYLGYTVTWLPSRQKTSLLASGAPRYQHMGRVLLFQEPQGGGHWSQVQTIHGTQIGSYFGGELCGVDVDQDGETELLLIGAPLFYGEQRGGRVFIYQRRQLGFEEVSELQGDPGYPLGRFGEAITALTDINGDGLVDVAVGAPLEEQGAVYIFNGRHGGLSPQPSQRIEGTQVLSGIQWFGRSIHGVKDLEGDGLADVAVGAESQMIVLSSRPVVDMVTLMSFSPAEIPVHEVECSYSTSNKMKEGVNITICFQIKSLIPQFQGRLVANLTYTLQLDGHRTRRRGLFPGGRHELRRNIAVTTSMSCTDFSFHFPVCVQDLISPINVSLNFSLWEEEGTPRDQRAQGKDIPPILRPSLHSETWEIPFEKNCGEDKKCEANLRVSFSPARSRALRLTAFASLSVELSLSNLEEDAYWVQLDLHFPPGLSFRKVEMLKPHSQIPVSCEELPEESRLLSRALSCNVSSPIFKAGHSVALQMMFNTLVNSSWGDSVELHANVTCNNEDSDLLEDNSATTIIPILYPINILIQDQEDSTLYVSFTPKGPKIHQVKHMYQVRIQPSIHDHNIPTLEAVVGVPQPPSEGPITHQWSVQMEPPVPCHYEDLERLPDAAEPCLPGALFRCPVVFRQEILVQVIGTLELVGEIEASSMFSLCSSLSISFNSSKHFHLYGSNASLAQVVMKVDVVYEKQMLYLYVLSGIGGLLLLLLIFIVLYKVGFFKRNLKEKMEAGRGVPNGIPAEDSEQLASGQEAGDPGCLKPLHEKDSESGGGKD
Sequence of LFA-1 (CD11a/CD18) on cells (human) (P05107 23-769, chain 2 of 2, further chain): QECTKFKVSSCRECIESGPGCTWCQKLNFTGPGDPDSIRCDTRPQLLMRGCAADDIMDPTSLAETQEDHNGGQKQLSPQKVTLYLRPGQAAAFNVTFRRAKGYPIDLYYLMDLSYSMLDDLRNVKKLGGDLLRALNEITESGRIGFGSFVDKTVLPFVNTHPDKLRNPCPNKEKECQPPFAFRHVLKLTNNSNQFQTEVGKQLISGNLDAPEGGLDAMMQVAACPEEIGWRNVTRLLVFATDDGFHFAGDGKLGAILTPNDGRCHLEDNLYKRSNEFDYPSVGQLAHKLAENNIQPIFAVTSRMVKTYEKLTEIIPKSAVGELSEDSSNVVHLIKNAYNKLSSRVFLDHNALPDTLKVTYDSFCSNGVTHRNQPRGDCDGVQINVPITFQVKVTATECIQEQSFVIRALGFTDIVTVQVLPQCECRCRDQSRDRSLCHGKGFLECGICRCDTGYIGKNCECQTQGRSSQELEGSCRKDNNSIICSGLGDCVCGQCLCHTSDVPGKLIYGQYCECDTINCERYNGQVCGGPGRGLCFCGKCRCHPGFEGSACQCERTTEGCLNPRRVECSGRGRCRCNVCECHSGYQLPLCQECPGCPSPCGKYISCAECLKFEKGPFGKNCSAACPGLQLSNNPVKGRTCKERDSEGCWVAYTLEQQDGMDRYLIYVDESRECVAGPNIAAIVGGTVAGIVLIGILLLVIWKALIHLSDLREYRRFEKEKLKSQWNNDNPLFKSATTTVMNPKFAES

Take 60.3 (antibody): the Inhibition (%) of CD18-dependent JY cell binding in assay [1] came out at 100%.
Take ICAM-R peptide 72-76 (NGSQI): the % Inhibition CD18-Dependent Binding (SKW3) in assay [2] was 26%.
In assay [3], TS1/22 (antibody) returned a % inhibition of neutrophil binding to ICAM-R of 50%.
